Data: the supplement of paper PMC9170038

Tested on: K4 kissing-loop RNA reporter
Assay: apparent KD of K4 kissing-loop reporter; higher = weaker reporter binding
Settings: Eterna round: R107
Protocol: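 RNA-MaP round R107: designed RNA switches with theophylline, tryptophan, arginine or FMN aptamers are transcribed on-chip within common flanks. They are titrated with a labelled K4 kissing-loop RNA reporter in RNA-MaP buffer (100 mM Tris pH 7.5, 80 mM KCl, 4 mM MgCl2), without ligand or with the indicated ligand. Median apparent KD per design.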

[1] = input ligand: theophylline 20 uM
[2] = input ligand: tryptophan 2.4 mM
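Note: bound reporter read as fluorescence of individual clusters on recovered sequencing chips by microscopy, with normalized cluster intensities fitted with a binding model.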

Row | Sequence | apparent KD of K4 kissing-loop reporter (input ligand: FMN 200 uM) [nM] | apparent KD of K4 kissing-loop reporter (input ligand: arginine 13.2 mM) [nM] | apparent KD of K4 kissing-loop reporter (input ligand: none) [nM] | apparent KD of K4 kissing-loop reporter [1] [nM] | apparent KD of K4 kissing-loop reporter [2] [nM]
1 | UGGAUAUAGUGAUGUUAUAUAGAGAGGGAUACCAGUUUAGAGAAGAACCCUUGGCAGCCUAAAGAAGUAUCAUUAGAGAAGAAUG [ExTheophyl.An] | 370 | 229 | 253 | 324 | 241
2 | UGGCGGACGAUCCGGAGUGAUGUUCCGGAUACCAGCAGAAGAGCCUGCCCUUGGCAGCCGUGCGACGCUGGGAGAGUCCGGCGUC [Requered] | 104 | 88 | 104 | 107 | 99.7
3 | UGGGAUGGGCGAGGAUAUGGUGAGGUGGCGGUUGUUAGUGAUGUUGGUGAUGCUAGUGAUGUUUGUCCAGAAGGCGCGGGAUUUU [BDazzled] | 218 | 104 | 171 | 179 | 168
4 | UGGGAUGUUAAAGGAUAUAGAAAGUGAUAUUAGAAAGUGAGUGAUGUUGAUGUAAGUGAUGAUAUGUUAGAAGGUUAACAAAACG [abcd] | 431 | 363 | 499 | 472 | 379
5 | UGGGUGUAGUGAUGUUAUAUAGAGAGUGAUACCAGCUUAGAGAGAAGCCCUUGGCAGCAUAGAAGAGUAUCAUUGGAGGAGGAGG [ExTheophyl.Ay] | 680 | 527 | 609 | 668 | 401
6 | UGGGUUGGAAGUGAUGUUUCUCUAAGUGAUACCAGACAAAAGAAAGUCCCUUGGCAGCACAAUGAUGCCAAGGAAACGGCAUGAU [#16 K4 Theophylline A Same State] | 229 | 244 | 260 | 250 | 195
7 | UGUAAGCGCGUAGAUACCAGCAGACGAGUGAUGUUCGAGAGAUUAAGGAAAAGAAAGUAAUGCCCUUGGCAGCUAAUCAUAAGCG [whbob_Ex_Theo_B_sa94] | 248 | 335 | 264 | 301 | 174
8 | UGUACCGAGUCAGGAUAUAGCGUCGAAAGACGAAUCCUAGUGAUGUUAGGGAUCUGCGAAAGCAGUCUAGAAGGGACUUGGUACU [FmnBS 26 A19+U68] | 275 | 278 | 295 | 293 | 291
9 | UGUAUGUGAUUUGAUACCAGACCAGCUGGUGGUAUAUGAGUGAUGUUCAUGUUGGUGUGGGUCCCUUGGCAGCAAAUCGCAUACU [KL-SSTheoB9] | 242 | 161 | 237 | 164 | 183
10 | UGUAUGUGAUUUGAUACCAGACCAGCUGGUGUUAGAUGAGUGAUGUUGAUCUAGGGUUGGGUCCCUUGGCAGCAAAUCGCAUACU [KL-SSTheoB22] | 593 | 391 | 557 | 435 | 463
11 | UGUAUGUGAUUUGAUACCAGACCAUCUUGUGAGAAGUGAGUGAUGUUUAUUUUGGUUUGGGUCCCUUGGCAGCAAAUCGCAUACU [KL-SSTheoB23] | 777 | 560 | 826 | 619 | 738
12 | UGUCAUUGGUCGGCCGCCACUAAAUAAAAGAGUGAUGUUCUUAAGACGGAUCGAAAGAUCUGUCAUAGGACCGGGACCGAUGACU [TrypBS 21 #SwitchBubble #StaticStem] | 1200 | 891 | 1080 | 888 | 667
13 | UGUCAUUGGUCGGCCGCCACUAGGACCGGGUAUAACCUAGUGAUGUUAGUGAGUACGGCCGCCACUAGGACCGGGACCGAUGACU [KL-SSTryp-B120 #DoubleAptamer] | 531 | 319 | 857 | 572 | 91.9
14 | UGUCAUUGGUCGGCCGCCACUCCAUAACGAGUGAUGUUCUAAAAGACGGAUCGAAAGAUCUGUCGGAGGACCGGGACCGAUGACU [FiskerMod 6 - Jieux - Same State - Tryptophan B] | 558 | 308 | 622 | 274 | 1140
15 | UGUCAUUGGUCGGCCGCCACUUCAUAUAGAGUGAUGUUCUGAAAGACGGAUCGAAAGAUCUGUCGAAGGACCGGGACCGAUGACU [FiskerMod 12 - Jieux - Same State - Tryptophan B] | 1100 | 810 | 1640 | 1100 | 268
16 | UGUCAUUGGUCUGAUACCAGAAGAAAUCUGGAGUGAUGUUCCAAGUCGACAAAAUGUCGCUUCCCUUGGCAGCAGACCGAUGACU [TheoBS 23 #SwitchBubble 13 #StaticStem] | 393 | 331 | 377 | 222 | 349
17 | UGUCAUUGGUCUGAUACCAGUACCCUUGGCAGCCAAGGAGUGAUGUUCCAAGGAUACCAGUGCCCUUGGCAGCAGACCGAUGACU [TheoBS 12 #DoubleAptamer #SwitchBubble] | 920 | 563 | 1120 | 613 | 901
18 | UGUCAUUGGUCUGAUACCAGUUAGACCGAUAGGUCAAAACUGGAGUGAUGUUCCCAAAAUAACCCUUGGCAGCAGACCGAUGACU [TheoBS 3 #SwitchBubble #StaticStem] | 280 | 149 | 152 | 282 | 191
19 | UGUGAGCUGUCGACAAAAGUCGACUAAAAUGAGGAUAUGACGAAAGUCAGAAGGCAUCAAUAAUGGAGUGAUGUUCCUGCUCACU [FmnA 9 U30+A56] | 373 | 432 | 809 | 790 | 763
20 | UGUGAUGAGUAGAGUGAUGUUUUGAAGGAUACCAGAGUGUUGUUAUUCCCUUGGCAGCUUGAGUGAUGUUUGAUGUUGUUGUUGU [rcrrmullin] | 328 | 221 | 253 | 205 | 211
21 | UGUGAUGUUGUGAUGUUUAGUGUUGUUGGGCAGGAUAUUGUAGAGGCGAGAAGGGCUAGUGUGAUGUAUGAGUGAUGUUUGUAGU [kkollmullin] | 127 | 111 | 246 | 177 | 186
